From patent publication JP2008232916A

Key:
[1] = biological target: 配列番号3のアルファヘリカルペプチド (third helix peptide), displayed on 15 nm gold particles; test: gold nanoparticle aggregation: 100 µl E. coli lysate supernatant added to 1 ml mixed SEQ 2 and SEQ 3 particles; the read-out belongs to the three-peptide complex
[2] = biological target: T1, 配列番号2のアルファヘリカルペプチド (second helix peptide), displayed on 15 nm gold particles; test: as above
T1 sequence (peptide): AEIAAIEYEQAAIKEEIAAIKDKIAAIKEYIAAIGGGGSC

[3] = biological target: 配列番号3のアルファヘリカルペプチド (third helix peptide), displayed on 15 nm gold particles; test: gold nanoparticle aggregation: 500 nM free SEQ 1 added to mixed SEQ 2 and SEQ 3 particles; the read-out belongs to the three-peptide complex
[4] = biological target: T1, 配列番号2のアルファヘリカルペプチド (second helix peptide), displayed on 15 nm gold particles; test: as above
[5] = biological target: T2, 配列番号16のアルファヘリカルペプチド (peptide containing the second helix peptide of the heterodimer), displayed on 15 nm gold particles; test: gold nanoparticle aggregation: 500 nM free SEQ 15 added to SEQ 16 particles, absorption spectrum
T2 sequence (peptide): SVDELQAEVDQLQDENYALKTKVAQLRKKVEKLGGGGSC

B1: アルカリフォスファターゼ(配列番号5)と配列番号1のアルファヘリックスとの融合ペプチド(配列番号8) (enzyme)
chain: RTPEMPVLENRAAQGDITAPGGARRLTGDQTAALRDSLSDKPAKNIILLIGDGMGDSEITAARNYAEGAGGFFKGIDALPLTGQYTHYALNKKTGKPDYVTDSAASATAWSTGVKTYNGALGVDIHEKDHPTILEMAKASGLATGNVSTAELQDATPAALVAHVTSRKCYGPSATSEKCPGNALEKGGKGSITEQLLNARADVTLGGGAKTFAETATAGEWQGKTLREQAQARGYQLVNDAASLNAVTEANQQKPLLGLFADGNMPVRWLGPKATYHGNIDKPAVTCTPNPQRNDSVPTLAQMTDKAIELLSKNEKGFFLQVEGASIDKQDHAANPCGQIGETVDLDEAVQRALEFAKKDGNTLVIVTADHAHASQIVAPDTKAPGLTQALNTKDGAVMVMSYGNSEEDSQEHTGSQLRIAAYGPHAANVVGLTDQTDLFYTMKAALGLKGGGSGGGSGGGSLVPRGSAEIAAIKYKQAAIKNEIAAIKQEIAAIEQMIAAI
absorption maximum of the gold colloid after addition [1]: 555 nm
absorption maximum of the gold colloid after addition [2]: 555 nm

AEIAAIKYKQAAIKNEIAAIKQEIAAIEQMIAAI [配列番号1で示されるアルファヘリカルペプチド (first helix peptide of the heterotrimeric alpha-helical coiled coil)]
absorption maximum of the gold colloid after addition (525 nm before) [3]: 555 nm
absorption maximum of the gold colloid after addition (525 nm before) [4]: 555 nm

B2: 配列番号15で示されるペプチド (first helix peptide of a heterodimer, SEQ ID NO 13, fused in tandem to both ends of the linker SEQ ID NO 14) (peptide)
peptide: TVAQLEEKVKTLRAQNYELKSRVQRLREQVAQLAGGGGSGGGGSGGGGSTVAQLEEKVKTLRAQNYELKSRVQRLREQVAQLA
absorption maximum of the gold colloid after addition (about 525 nm before) [5]: 550 nm
